Values of other authors in publication PMC139967 (BMC Biochemistry, 2002).

What was measured:
[1] = not given; remark: listed apart in the source
[2] = tested on: calmodulin

B1: Myo1c: Myosin-1c, previously called myosin-Iβ, myr 2, or MI-110K; literature preparations (protein, UniProt O00159 1-1063, looked up)
Unconventional myosin-Ic: MALQVELVPTGEIIRVVHPHRPCKLALGSDGVRVTMESALTARDRVGVQDFVLLENFTSEAAFIENLRRRFRENLIYTYIGPVLVSVNPYRDLQIYSRQHMERYRGVSFYEVPPHLFAVADTVYRALRTERRDQAVMISGESGAGKTEATKRLLQFYAETCPAPERGGAVRDRLLQSNPVLEAFGNAKTLRNDNSSRFGKYMDVQFDFKGAPVGGHILSYLLEKSRVVHQNHGERNFHIFYQLLEGGEEETLRRLGLERNPQSYLYLVKGQCAKVSSINDKSDWKVVRKALTVIDFTEDEVEDLLSIVASVLHLGNIHFAANEESNAQVTTENQLKYLTRLLSVEGSTLREALTHRKIIAKGEELLSPLNLEQAAYARDALAKAVYSRTFTWLVGKINRSLASKDVESPSWRSTTVLGLLDIYGFEVFQHNSFEQFCINYCNEKLQQLFIELTLKSEQEEYEAEGIAWEPVQYFNNKIICDLVEEKFKGIISILDEECLRPGEATDLTFLEKLEDTVKHHPHFLTHKLADQRTRKSLGRGEFRLLHYAGEVTYSVTGFLDKNNDLLFRNLKETMCSSKNPIMSQCFDRSELSDKKRPETVATQFKMSLLQLVEILQSKEPAYVRCIKPNDAKQPGRFDEVLIRHQVKYLGLLENLRVRRAGFAYRRKYEAFLQRYKSLCPETWPTWAGRPQDGVAVLVRHLGYKPEEYKMGRTKIFIRFPKTLFATEDALEVRRQSLATKIQAAWRGFHWRQKFLRVKRSAICIQSWWRGTLGRRKAAKRKWAAQTIRRLIRGFVLRHAPRCPENAFFLDHVRTSFLLNLRRQLPQNVLDTSWPTPPPALREASELLRELCIKNMVWKYCRSISPEWKQQLQQKAVASEIFKGKKDNYPQSVPRLFISTRLGTDEISPRVLQALGSEPIQYAVPVVKYDRKGYKPRSRQLLLTPNAVVIVEDAKVKQRIDYANLTGISVSSLSDSLFVLHVQRADNKQKGDVVLQSDHVIETLTKTALSANRVNSININQGSITFAGGPGRDGTIDFTPGSELLITKAKNGHLAVVAPRLNSR
Q: For B1, which “effect of Ca^2+ on in vitro motility” value is on record?
A: completely halts

Q: And the “effect of Ca^2+ on ATPase activity” value [1]?
A: increases

Q: What about the “calmodulins per Myo1c after calmodulin supplementation” value ([2]; calmodulin supplementation) of the same molecule?
A: ≤ 4

Q: And the “calmodulins per Myo1c heavy chain” value ([2]; purified Myo1c)?
A: 2–3
